The record followed here is patent US20070254831A1 (published 2007).

Read-outs that look alike come from different tables or passages of the source. Numbered stars: 1 amine (or outer) side, 2 acyl side, 3 side chain; on linkers, the order of the positions; unused ones are H or OH. Bridge positions count the residues as written; N and C are the ends. Square brackets hold non-standard residues; d marks the D form. Ends that are not written are not given here. X2 = (3R)‑3‑amino‑1‑carboxymethyl‑valerolactam, O=C1[C@H](N[*:1])CCCN1CC(=O)[*:2]; NMeL = CN[C@@H](CC(C)C)C(=O)O; Pen = CC(C)(S)[C@H](N)C(=O)O; NMeA = CN[C@@H](C)C(=O)O

Assay [1] concerns the target T1, soluble human FcRn (human, UniProt P55899 24-297; P61769 21-119, biotinylated (Sulfo-NHS-LC-Biotin) in the ELISA; amine-coupled to CM5 chip in SPR).
T1 construct: also called shFcRn; biotinylated shFcRn
Briefly: ELISA, competitor human IgG.
Description: (§1) The wells were coated with 100 μl/well of 1 μg/ml biotinylated-shFcRn in Buffer A. The plate was sealed and incubated at 37° C. for 2 hours. Afterwards, the plate washed with 200 μl/well of Buffer B (Buffer B: 100 mM MES pH 6, 150 mM NaCl, 0.5% BSA IgG-free (Jackson ImmunoResearch, West Grove, Pa.), 0.05% Tween-20). […] To allow for mixing, the plate was rocked for 2 minutes, sealed and incubated at 37° C. for 2 hours. […] The plate was covered, incubated for 30 minutes at room temperature and washed 4 times with 200 μl/well of ice-cold buffer B. SureBlue TMB substrate solution (100 μl/well, KPL, Gaithersburg, Md.) was added and the plate was allowed to incubate at room temperature until color developed, which took 5 to 10 minutes. Once color developed, 100 μl/well of TMB stop solution (KPL, Gaithersburg, Md.) was added and the absorbance was measured at 450 nm. The data was plotted as absorbance vs. peptide concentration to derive the inhibitory concentration 50% (IC₅₀) values.

Assay [2] has as its target T1, soluble human FcRn. Briefly: SPR, pH 6. Background: In SPR one partner is held on a chip, and binding of the other changes the refractive index at the surface.
Description: (§2) The following steps were performed to cross-link soluble human or cynomolgus FcRn to the dextran surface of a CM5 sensor chip (Biacore AB, Uppsala, Sweden) by an amine coupling reaction involving 1-ethyl-(3-dimethylaminopropyl)-carbodiimide hydrochloride (EDC) (Biacore AB, Uppsala, Sweden) and N-hydroxysuccinimide (NHS) (Biacore AB, Uppsala, Sweden) as recommended by Biacore (BIAapplications Handbook, version AB, section 4.2, Biacore AB, Uppsala, Sweden). […] Residual sites on the FcRn flow cell were blocked with 1 M ethanolamine hydrochloride pH 8.5 (Biacore AB, Uppsala, Sweden). A control flow cell was blocked with ethanolamine for reference subtraction. For analysis of the monomeric peptides, FcRn was coated to a final density of 4000-5000 response units (RU). For analysis of the peptide dimers, FcRn was coated to a density of 2000-2500 RU. All SPR measurements were performed using a BIACORE 3000 Instrument (Biacore AB Uppsala, Sweden). For measurements done at either pH 6 or pH 7.4, experiments were performed in 50 mM phosphate, 100 mM sodium chloride, 0.01% surfactant P20 (Biacore AB, Uppsala, Sweden).
(§3) Ten, 2-fold dilutions of the peptide were injected over the FcRn-CM5 chip at a rate of 20 μl/min for 2 min. The peptide was dissociated from the chip for 2.5 minutes with buffer. Any remaining peptide was removed from the chip with a 30 second injection of HBS-P buffer (Biacore AB, Uppsala, Sweden) at a rate of 30 μl/min. Sensorgrams were generated and analyzed using BiaEval software version 3.1 (Biacore AB, Uppsala, Sweden). The equilibrium RU observed for each injection was plotted against concentration. The equilibrium KD values were derived by analysis of the plots using the steady state affinity model included in the BiaEval software.
Assay [3] addresses T1, soluble human FcRn. Description: SPR, pH 7.4.
Description: as §2, §3
Assay [4] has as its target T1, soluble human FcRn. Briefly: SPR, pH 6. This is another data set of the same source.
Description: as §2, §3
Assay [5] deals with T1, soluble human FcRn. Description: ELISA, competitor human IgG. The source holds these as a separate data set. On the technique in general: In an ELISA, binding on a coated surface is turned into a signal by an enzyme label.
Assay [6] has as its target T1, soluble human FcRn. Description: ELISA, competitor human IgG. The source holds these as a separate data set.
Description: as §1
Assay [7] addresses T1, soluble human FcRn. Briefly: ELISA, competitor human IgG. The source holds these as a separate data set.
Description: as §1
In assay [8] the target is T1, soluble human FcRn. Briefly: ELISA, competitor human IgG. The source holds these as a separate data set.
Description: as §1
Assay [9] addresses T1, soluble human FcRn. Description: ELISA, competitor human IgG. The source holds these as a separate data set.
Description: as §1
Assay [10] concerns the target T1, soluble human FcRn. Briefly: SPR, pH 6. This is another data set of the same source.
Description: as §2, §3
Assay [11] has as its target T1, soluble human FcRn. Briefly: ELISA, competitor human IgG. The source holds these as a separate data set.
Description: as §1
Assay [12] deals with T1, soluble human FcRn. Description: ELISA, competitor human IgG. This is another data set of the same source.
Description: as §1
Assay [13] addresses T1, soluble human FcRn. Description: SPR, pH 6. This is another data set of the same source.
Description: as §2, §3
Assay [14] addresses T1, soluble human FcRn. Description: ELISA, competitor human IgG. The source holds these as a separate data set.
Description: as §1
In assay [15] the target is T1, soluble human FcRn. Briefly: SPR, pH 6. The source holds these as a separate data set.
Description: as §2, §3

T1 sequence (P55899 24-297 limits assumed, chain 1 of 2): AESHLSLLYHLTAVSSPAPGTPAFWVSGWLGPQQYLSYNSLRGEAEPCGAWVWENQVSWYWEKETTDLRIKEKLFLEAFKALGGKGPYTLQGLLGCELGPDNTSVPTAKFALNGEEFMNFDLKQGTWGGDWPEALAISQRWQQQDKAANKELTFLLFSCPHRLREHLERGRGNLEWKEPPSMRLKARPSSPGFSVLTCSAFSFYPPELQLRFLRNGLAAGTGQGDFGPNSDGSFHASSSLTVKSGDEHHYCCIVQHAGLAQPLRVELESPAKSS
T1 sequence (P61769 21-119 limits assumed, chain 2 of 2): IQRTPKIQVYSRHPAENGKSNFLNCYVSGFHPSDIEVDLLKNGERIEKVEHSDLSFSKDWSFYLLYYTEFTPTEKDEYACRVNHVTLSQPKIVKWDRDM

Take QRFXTGHFGGLXPCNGP (Pen at 4; 4-amino-Phe at 12; disulfide; C-terminal amide) [Peptide No. 63]: the IC50 in the assay with soluble human FcRn [1] is 110000 nM. In the assay with soluble human FcRn [2], this molecule returned a Kd of 34000 nM.

On to QRFCTGHFAGLYPCNGP-NH2 (disulfide 4-14 (inferred)) [SEQ ID NO:31], for which the Kd in the assay with soluble human FcRn [3] came out at 200000 nM; with soluble human FcRn [4], 230000 nM. The IC50 with soluble human FcRn [5] was greater than 125000 nM.

Molecule QRFCTGHFGGLYACNGP-NH2 (disulfide 4-14 (inferred)) [SEQ ID NO:35] came in with a Kd in the assay with soluble human FcRn [3] of 100000 nM.

B1: Peptide No. 201 (peptide)
peptide: QRFXTGHFGGLYPCNGP
modifications: Pen at 4; intrachain disulfide; C-terminal amide; N-termini joined by ethylene glycol-bis(succinic acid) linker
notes: N-terminally linked dimer
As for B1, in the assay with soluble human FcRn [6], the IC50 worked out at 26 nM.

B2: Peptide No. 279 (peptide)
peptide: RFXTGHFGGLYPC
modifications: Pen at 3; Sar at 9; NMeLeu at 10; intrachain disulfide; C-terminal amide; N-termini joined by Bis-dPEG6 diacid linker
notes: N-terminally linked dimer
Molecule B2 registered a half-maximal inhibitory concentration (IC50) with soluble human FcRn [6] of 7 nM.

B3: Peptide No. 127 (peptide)
peptide: QRFDTGHFGGLYPKN-NH2
modifications: lactam 4-14; N-terminus assumed
SMILES: CC(C)C[C@@H]1NC(=O)CNC(=O)CNC(=O)[C@H](Cc2ccccc2)NC(=O)[C@H](Cc2c[nH]cn2)NC(=O)CNC(=O)[C@H]([C@@H](C)O)NC(=O)[C@@H](NC(=O)[C@H](Cc2ccccc2)NC(=O)[C@H](CCCNC(=N)N)NC(=O)[C@@H](N)CCC(N)=O)CC(=O)NCCCC[C@@H](C(=O)N[C@@H](CC(N)=O)C(N)=O)NC(=O)[C@@H]2CCCN2C(=O)[C@H](Cc2ccc(O)cc2)NC1=O
In the case of B3, the IC50 with soluble human FcRn [7] was found to be 7600 nM.

In the assay with soluble human FcRn [8], QRFXTGHFGGLYPCNGP (D-Phe at 3; Pen at 4; disulfide; C-terminal amide) [Peptide No. 96] yielded a concentration for half-maximal inhibition (IC50) of 11400 nM.

B4: Peptide No. 205 (peptide)
peptide: RFXTGHFXLYPC
modifications: Pen at 3; X at 8 = 3(S)-3-amino-2-oxo-1-azepine acetic acid; disulfide; C-terminal amide
Consider B4, for which the IC50 in the assay with soluble human FcRn [9] came to 640 nM. In the assay with soluble human FcRn [10], the Kd amounted to 103 nM. On to QRFXTGHFGGLXPCNGP (Pen at 4; 3-pyridylAla at 12; disulfide; C-terminal amide) [Peptide No. 67], for which the IC50 with soluble human FcRn [1] worked out at 92000 nM. In the assay with soluble human FcRn [2], the Kd came out at 34000 nM.

B5: Peptide No. 179 (peptide)
peptide: RFXTGHFXLYPC
modifications: Pen at 3; X at 8 = 3-amino-2-oxo-1-piperidine-acetic acid (drawing CHEM-US-00081); disulfide; C-terminal amide
With B5, the half-maximal inhibitory concentration (IC50) in the assay with soluble human FcRn [9] is 7200 nM. Moreover, binding with soluble human FcRn [10] was put at a Kd of 670 nM.

B6: Peptide No. 288 (peptide)
peptide: RFXTGHFGGLYPCGG
modifications: Pen at 3; Sar at 9; NMeLeu at 10; intrachain disulfide; C-termini joined on a branching Lys
notes: C-terminally linked dimer
B6 registered an IC50 in the assay with soluble human FcRn [6] of 16 nM. For RFXTGHFGPLYPCNGP (Pen at 3; D-Pro at 9; disulfide; C-terminal amide) [Peptide No. 144], the IC50 with soluble human FcRn [11] worked out at 1500 nM.

B7: Peptide No. 228 (peptide)
peptide: RF[Pen][NMeA]GHF[X2][NMeL]YPC-NH2
modifications: disulfide 3-12; N-terminus assumed
SMILES: CC(C)C[C@H]1C(=O)N[C@@H](Cc2ccc(O)cc2)C(=O)N2CCC[C@H]2C(=O)N[C@H](C(N)=O)CSSC(C)(C)[C@H](NC(=O)[C@H](Cc2ccccc2)NC(=O)[C@@H](N)CCCNC(=N)N)C(=O)N(C)[C@@H](C)C(=O)NCC(=O)N[C@@H](Cc2c[nH]cn2)C(=O)N[C@@H](Cc2ccccc2)C(=O)N[C@@H]2CCCN(CC(=O)N1C)C2=O
In the case of B7, the IC50 with soluble human FcRn [9] was determined as 1100 nM. This molecule returned a Kd with soluble human FcRn [10] of 145 nM.

B8: Peptide No. 280 (peptide)
peptide: RFXTGHFGGLYPC
modifications: not fully specified; Pen at 3; Sar at 9; NMeLeu at 10; intrachain disulfide; C-termini joined on the two amines of a branching Lys
notes: C-terminally linked dimer
In the assay with soluble human FcRn [6], B8 registered an IC50 of 25 nM.

B9: Peptide No. 287 (peptide)
peptide: RFXTGHFGGLYPCG
modifications: Pen at 3; Sar at 9; NMeLeu at 10; intrachain disulfide; C-termini joined on a branching Lys
notes: C-terminally linked dimer
As to B9, the IC50 with soluble human FcRn [6] is 20 nM. With RFXTGHFGGLYPC (Pen at 3; disulfide; C-terminal amide) [Peptide No. 99], the IC50 with soluble human FcRn [9] and with soluble human FcRn [11] was 2000 nM throughout. On to RFXTGHFGGWYPC (Pen at 3; disulfide; C-terminal amide) [Peptide No. 237], for which the IC50 with soluble human FcRn [12] was 2800 nM. Also, the dissociation constant (Kd) with soluble human FcRn [13] was found to be 140 nM.

B10: Peptide No. 197 (peptide)
peptide: RFXTGHFXLYPC
modifications: Pen at 3; X at 8 = 5,5-bicyclic dipeptide mimic (drawing CHEM-US-00085); disulfide; C-terminal amide
On to B10, for which, in the assay with soluble human FcRn [10], the Kd was determined as 990 nM.

B11: Peptide No. 182 (peptide)
peptide: RFVTGHFXLYPA
modifications: X at 8 = 3-amino-2-oxo-1-piperidine-acetic acid (drawing CHEM-US-00094); linear; C-terminal amide
For B11, the IC50 with soluble human FcRn [14] is 38000 nM.

B12: Peptide No. 107 (peptide)
peptide: QRFDTGHFGGLYKNGP-NH2
modifications: lactam 4-13; N-terminus assumed
SMILES: CC(C)C[C@@H]1NC(=O)CNC(=O)CNC(=O)[C@H](Cc2ccccc2)NC(=O)[C@H](Cc2c[nH]cn2)NC(=O)CNC(=O)[C@H]([C@@H](C)O)NC(=O)[C@@H](NC(=O)[C@H](Cc2ccccc2)NC(=O)[C@H](CCCNC(=N)N)NC(=O)[C@@H](N)CCC(N)=O)CC(=O)NCCCC[C@@H](C(=O)N[C@@H](CC(N)=O)C(=O)NCC(=O)N2CCC[C@H]2C(N)=O)NC(=O)[C@H](Cc2ccc(O)cc2)NC1=O
The molecule B12 came in with an IC50 with soluble human FcRn [7] greater than 125000 nM.

B13: Peptide No. 178 (peptide)
peptide: RFXTGHFXLYPC
modifications: Pen at 3; X at 8 = 3-amino-2-oxo-1-piperidine-acetic acid (drawing CHEM-US-00080); disulfide; C-terminal amide
Take B13: in the assay with soluble human FcRn [9], the IC50 came out at 660 nM. Besides, the affinity with soluble human FcRn [10], expressed as Kd, was 160 nM. Consider QRYXTGHFGGLYPCNGP (Pen at 4; disulfide; C-terminal amide) [Peptide No. 97], for which the IC50 with soluble human FcRn [8] was found to be 2400 nM.

B14: Peptide No. 101 (peptide)
peptide: QRF[Pen]TGHFGGIYPCNGP-NH2
modifications: disulfide 4-14; N-terminus assumed
SMILES: CC[C@H](C)[C@@H]1NC(=O)CNC(=O)CNC(=O)[C@H](Cc2ccccc2)NC(=O)[C@H](Cc2c[nH]cn2)NC(=O)CNC(=O)[C@H]([C@@H](C)O)NC(=O)[C@@H](NC(=O)[C@H](Cc2ccccc2)NC(=O)[C@H](CCCNC(=N)N)NC(=O)[C@@H](N)CCC(N)=O)C(C)(C)SSC[C@@H](C(=O)N[C@@H](CC(N)=O)C(=O)NCC(=O)N2CCC[C@H]2C(N)=O)NC(=O)[C@@H]2CCCN2C(=O)[C@H](Cc2ccc(O)cc2)NC1=O
As to B14, the concentration for half-maximal inhibition (IC50) with soluble human FcRn [12] is 3400 nM. The molecule also returned a dissociation constant (Kd) with soluble human FcRn [13] of 340 nM. For QRFXTGHFGGLYPENGP (Orn at 4; side-chain lactam bridge Orn 4-Glu 14; C-terminal amide) [Peptide No. 131], the IC50 with soluble human FcRn [7] stood at 30000 nM. On to QRFXGGHFGGLYPCNGP (Pen at 4; disulfide; C-terminal amide) [Peptide No. 195], for which the affinity with soluble human FcRn [15], expressed as Kd, was 760 nM.

B15: Peptide No. 115 (peptide)
peptide: QRF[Pen]TGHFGGFYPCNGP-NH2
modifications: disulfide 4-14; N-terminus assumed
SMILES: C[C@@H](O)[C@@H]1NC(=O)[C@@H](NC(=O)[C@H](Cc2ccccc2)NC(=O)[C@H](CCCNC(=N)N)NC(=O)[C@@H](N)CCC(N)=O)C(C)(C)SSC[C@@H](C(=O)N[C@@H](CC(N)=O)C(=O)NCC(=O)N2CCC[C@H]2C(N)=O)NC(=O)[C@@H]2CCCN2C(=O)[C@H](Cc2ccc(O)cc2)NC(=O)[C@H](Cc2ccccc2)NC(=O)CNC(=O)CNC(=O)[C@H](Cc2ccccc2)NC(=O)[C@H](Cc2c[nH]cn2)NC(=O)CNC1=O
Regarding B15, in the assay with soluble human FcRn [12], the IC50 was found to be 4100 nM. This molecule yielded a Kd with soluble human FcRn [13] of 400 nM. Turning to QRWXTGHFGGLYPCNGP (Pen at 4; disulfide; C-terminal amide) [Peptide No. 98], the half-inhibitory concentration (IC50) in the assay with soluble human FcRn [8] was 1500 nM.

Molecule QRFXTGHFGGWYPCNGP (Pen at 4; Sar at 10; disulfide; C-terminal amide) [Peptide No. 238] came in with an IC50 with soluble human FcRn [12] of 1000 nM.

By IC50 is commonly meant the concentration that inhibits the measured activity by half. A higher IC50 goes with a need for much substance. Broadly, the Kd is the constant that tells how readily two partners part at equilibrium. Higher therefore signals a looser complex.
